Data published in PMC6814797, “C-terminal–modified LY2510924: a versatile scaffold for targeting C-X-C chemokine receptor type 4” (Scientific Reports, 2019).
Where a SMILES comes first, the peptide text is derived from it. Bridges are numbered along the chain shown (N, C = ends). [ ]: non-standard residue; d: D form. 2Nal = N[C@@H](Cc1ccc2ccccc2c1)C(=O)O; Lys(iPr) = CC(C)NCCCC[C@H](N)C(=O)O

What was measured:
CXCR4 = molecular target: T1, CXCR4 (Homo sapiens, UniProt P61073); assay: Competitive binding assay: displacement of 125I-SDF-1α from CXCR4-expressing CCRF-CEM cells; details: CCRF-CEM 0.5 × 10^6 cells, 125I-SDF-1α 1 kBq, 0.25 nM SDF-1α, one hour, room temperature per method (b54 says 37 °C); mean ± SD, n = 3
T1 construct: were determined with CCRF-CEM cells expressing endogenous CXCR4; endogenous in cells; host or cells: CCRF-CEM (human acute lymphoblastic leukemia) whole cells
T1 sequence (P61073 whole entry): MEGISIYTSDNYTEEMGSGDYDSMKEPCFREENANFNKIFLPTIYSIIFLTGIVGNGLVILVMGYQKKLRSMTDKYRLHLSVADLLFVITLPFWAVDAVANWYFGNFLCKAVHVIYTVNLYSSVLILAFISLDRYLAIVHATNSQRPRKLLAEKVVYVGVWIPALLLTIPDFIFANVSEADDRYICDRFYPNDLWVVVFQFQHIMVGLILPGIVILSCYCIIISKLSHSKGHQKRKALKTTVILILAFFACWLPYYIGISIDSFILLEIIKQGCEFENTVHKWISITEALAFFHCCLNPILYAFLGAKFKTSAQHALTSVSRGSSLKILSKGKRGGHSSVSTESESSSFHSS
Description: CCRF-CEM cells and ^125I-SDF-1α were used for the competitive binding assay. The competitive binding assay was performed in a 96-well MultiScreen HTS FB plate (Merck) treated with 0.1% polyethyleneimine. RPMI-1640 containing 1% bovine serum albumin (BSA) and 0.05% Tween20 was used for the assay buffer. Briefly, 200-μL reaction mixtures containing CCRF-CEM (0.5 × 10^6 cells), ^125I-SDF-1α (1 kBq), SDF-1α (0.05 pmol; R&D Systems, Minneapolis, MN), and varying concentrations of CXCR4 antagonists were incubated at room temperature for one hour. After the incubation, the cells were washed three times with the assay buffer, and radioactivity counts of cells were determined with a gamma counter. The IC50 values were calculated by using GraphPad Prism version 5.04 (GraphPad Software, San Diego, CA).
Since the purpose of this study was to assess in vivo accumulation to CXCR4-expressing cells, the apparent binding affinities were determined at 37 °C. […] The half-maximal inhibitory concentration (IC50) values of FRM001, its Ga-, Lu-, and Y-complexes, and other CXCR4 antagonists were determined with CCRF-CEM cells expressing endogenous CXCR4[34]. The displacement of ^125I-SDF-1α bound to the CXCR4 with the compounds was also evaluated in the presence of 0.25 nM of SDF-1α.

physchem = assay type: physicochemical; details: pH 7.4
Description: A solution of ^67Ga-FRM001 (168 kBq, 56.8 pmol of FRM001) in 0.5 mL of 1-octanol was added to a 0.5 mL solution of phosphate-buffered saline (PBS) (pH 7.4). The mixture was vortexed and rotated at room temperature for 5 min. After centrifugation at 13,000 × g for 5 min, the radioactivity concentrations in samples of both the aqueous and organic phases were determined by using a gamma counter, and the logPow values were calculated.

in vivo = details: female, SCID (C.B-17/Icr-scid/scid), mouse, iv, total radioactivity; for tissue uptake at 4 h: biodistribution
Description: All animal experiments were conducted in accordance with the Guidelines for Proper Conduct of Animal Experiments issued by the Science Council of Japan (June 1, 2006), and all experimental protocols were approved by the Institutional Animal Care and Use Committee of FUJIFILM RI Pharma Co., Ltd. (Permit No. Rin-170802 and Rin-180101). The acute lymphoblastic leukemia CCRF-CEM model was prepared using a published procedure. Briefly, 5 × 10^6 cells mixed with Matrigel (1:1; Corning, Corning, NY) were implanted subcutaneously into the rear flank of female 10-week-old SCID mice (C.B-17/Icr-scid/scid; CLEA Japan, Tokyo). After an average of three weeks, the animals were used in biodistribution and PET imaging studies. Tumor volumes ranged from 709–2,257 mm^3, while the tumor mass-to-body weight ratio was 3.1–9.4%.
Mice were sacrificed at four hours after the injection. Organs of interest were removed, weighed, and the radioactivity counts were determined using a gamma counter. The biodistribution of each sample was expressed as a percentage of the injected dose per gram of wet tissue weight (%ID/g).

Q: Which IC50 (CXCR4) does the source give for `c1ccc(CNCc2ccc(CN3CCCNCCNCCCNCC3)cc2)nc1` [AMD3465, reference compound] here?
A: Its IC50 is 12.8 ± 1.52 nM.

Q: For `CC(C)NCCCC[C@@H]1NC(=O)[C@H](Cc2ccc(O)cc2)NC(=O)[C@H](Cc2ccccc2)NC(=O)CC[C@H](C(=O)N[C@@H](CCCCNC(C)C)C(=O)N[C@@H](CSC2CC(=O)N(CCNC(=O)CN3CCN(CC(=O)O)CCN(CC(=O)O)CCN(CC(=O)O)CC3)C2=O)C(N)=O)NC(=O)CNC(=O)[C@H](Cc2ccc3ccccc3c2)NC(=O)[C@@H](CCCNC(=N)N)NC1=O` (stereo partly drawn) [FRM001, cyclo[Phe-Tyr-Lys(iPr)-D-Arg-2-Nal-Gly-D-Glu]-Lys(iPr)-Cys(maleimido-mono-amide-DOTA)-NH2], which IC50 (CXCR4) is on record?
A: The IC50 was 1.78 ± 0.15 nM.

Q: Which IC50 (CXCR4) does the source give for `CC(C)NCCCC[C@@H]1NC(=O)[C@H](Cc2ccc(O)cc2)NC(=O)[C@H](Cc2ccccc2)NC(=O)CC[C@H](C(=O)N[C@@H](CCCCNC(C)C)C(=O)N[C@@H](CSC2CC(=O)N(CCNC(=O)CN3CCN(CC(=O)O)CCN(CC(=O)O)CCN(CC(=O)O)CC3)C2=O)C(N)=O)NC(=O)CNC(=O)[C@H](Cc2ccc3ccccc3c2)NC(=O)[C@@H](CCCNC(=N)N)NC1=O` (stereo partly shown) [Ga-FRM001] here?
A: The IC50 was 2.26 ± 0.51 nM.

Q: With `CC(C)NCCCC[C@H](NC(=O)[C@H]1CCC(=O)N[C@@H](Cc2ccccc2)C(=O)N[C@@H](Cc2ccc(O)cc2)C(=O)N[C@@H](CCCCNC(C)C)C(=O)N[C@H](CCCNC(=N)N)C(=O)N[C@@H](Cc2ccc3ccccc3c2)C(=O)NCC(=O)N1)C(N)=O` [LY2510924, cyclo[Phe-Tyr-Lys(iPr)-D-Arg-2-Nal-Gly-D-Glu]-Lys(iPr)-NH2] (FY[Lys(iPr)][dR][2Nal]G[dE][Lys(iPr)]-NH2; lactam N-7) as the compound, how does the IC50 (CXCR4) read?
A: Its IC50 is 1.37 ± 0.1 nM.

Q: Which IC50 (CXCR4) does the source give for `CC(C)NCCCC[C@@H]1NC(=O)[C@H](Cc2ccc(O)cc2)NC(=O)[C@H](Cc2ccccc2)NC(=O)CC[C@H](C(=O)N[C@@H](CCCCNC(C)C)C(=O)N[C@@H](CSC2CC(=O)N(CCNC(=O)CN3CCN(CC(=O)O)CCN(CC(=O)O)CCN(CC(=O)O)CC3)C2=O)C(N)=O)NC(=O)CNC(=O)[C@H](Cc2ccc3ccccc3c2)NC(=O)[C@@H](CCCNC(=N)N)NC1=O` (stereo partly shown) [Lu-FRM001] here?
A: Its IC50 is 2.15 ± 0.14 nM.

Q: For `CC(C)NCCCC[C@@H]1NC(=O)[C@H](Cc2ccc(O)cc2)NC(=O)[C@H](Cc2ccccc2)NC(=O)CC[C@H](C(=O)N[C@@H](CCCCNC(C)C)C(=O)N[C@@H](CSC2CC(=O)N(CCNC(=O)CN3CCN(CC(=O)O)CCN(CC(=O)O)CCN(CC(=O)O)CC3)C2=O)C(N)=O)NC(=O)CNC(=O)[C@H](Cc2ccc3ccccc3c2)NC(=O)[C@@H](CCCNC(=N)N)NC1=O` (stereo partly shown) [Y-FRM001], which IC50 (CXCR4) is on record?
A: The IC50 was 0.89 ± 0.04 nM.

Q: Which results are given for `CC(C)NCCCC[C@@H]1NC(=O)[C@H](Cc2ccc(O)cc2)NC(=O)[C@H](Cc2ccccc2)NC(=O)CC[C@H](C(=O)N[C@@H](CCCCNC(C)C)C(=O)N[C@@H](CSC2CC(=O)N(CCNC(=O)CN3CCN(CC(=O)O)CCN(CC(=O)O)CCN(CC(=O)O)CC3)C2=O)C(N)=O)NC(=O)CNC(=O)[C@H](Cc2ccc3ccccc3c2)NC(=O)[C@@H](CCCNC(=N)N)NC1=O` (stereo partly shown) [^67Ga-FRM001, metal not drawn]?
A: logD (physchem): -3.23 ± 0.05; tissue to tissue ratio at 4 h (in vivo; 0.2 nmol FRM001/mouse): 59; tissue uptake at 4 h (in vivo; 0.2 nmol FRM001/mouse, adrenals): 1.02 ± 0.192 %ID/g; tissue uptake at 4 h (in vivo; 0.2 nmol FRM001/mouse, blood): 0.205 ± 0.033 %ID/g; tissue uptake at 4 h (in vivo; 0.2 nmol FRM001/mouse, bone): 0.682 ± 0.099 %ID/g; tissue uptake at 4 h (in vivo; 0.2 nmol FRM001/mouse, brain): 0.015 ± 0.003 %ID/g; tissue uptake at 4 h (in vivo; 0.2 nmol FRM001/mouse, fat): 0.291 ± 0.137 %ID/g; tissue uptake at 4 h (in vivo; 0.2 nmol FRM001/mouse, heart): 0.385 ± 0.063 %ID/g; tissue uptake at 4 h (in vivo; 0.2 nmol FRM001/mouse, kidneys): 4.85 ± 0.501 %ID/g; tissue uptake at 4 h (in vivo; 0.2 nmol FRM001/mouse, large intestine): 0.852 ± 0.318 %ID/g; tissue uptake at 4 h (in vivo; 0.2 nmol FRM001/mouse, liver): 16.1 ± 2.66 %ID/g; tissue uptake at 4 h (in vivo; 0.2 nmol FRM001/mouse, lungs): 2.01 ± 0.301 %ID/g; tissue uptake at 4 h (in vivo; 0.2 nmol FRM001/mouse, muscle): 0.107 ± 0.018 %ID/g; tissue uptake at 4 h (in vivo; 0.2 nmol FRM001/mouse, ovary): 0.808 ± 0.247 %ID/g; tissue uptake at 4 h (in vivo; 0.2 nmol FRM001/mouse, skin): 0.404 ± 0.076 %ID/g; tissue uptake at 4 h (in vivo; 0.2 nmol FRM001/mouse, small intestine): 0.355 ± 0.036 %ID/g; tissue uptake at 4 h (in vivo; 0.2 nmol FRM001/mouse, stomach): 0.381 ± 0.417 %ID/g; tissue uptake at 4 h (in vivo; 0.2 nmol FRM001/mouse, thymus): 1.57 ± 0.587 %ID/g; tissue uptake at 4 h (in vivo; 0.2 nmol FRM001/mouse, tumor): 12 ± 1.99 %ID/g; tissue uptake at 4 h (in vivo; 0.2 nmol FRM001/mouse, uterus): 0.944 ± 0.338 %ID/g; tissue uptake at 4 h (in vivo; 0.2 nmol/mouse, pancreas): 0.198 ± 0.016 %ID/g; tissue uptake at 4 h (in vivo; 0.2 nmol/mouse, spleen): 3.77 ± 0.195 %ID/g
